{"source": "patent US20210388087A1", "about": "(Chugai, published 2021)"}
{"biological_target": "T1, CD3 epsilon homodimer protein (UniProt P07766 23-126)", "T1 construct": "also called CD3 (CD3 epsilon)", "T1 sequence (P07766 23-126)": "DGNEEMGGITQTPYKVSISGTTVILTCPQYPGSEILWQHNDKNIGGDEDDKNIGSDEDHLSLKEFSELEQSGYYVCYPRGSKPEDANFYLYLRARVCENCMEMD", "assay": "SPR, CD3 epsilon homodimer on chip, one-arm antibody as analyte;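 note: surface plasmon resonance at 25 °C with CD3 epsilon homodimer amine-coupled to a CM4 sensor chip, antibody injected as analyte, HBS-EP+ as running buffer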"}
{"binder": "CE115HA000 N53Q (antibody, human IgG1, kappa, L234A L235A, N297A, name in Kabat numbering, one-arm antibody) heavy: QVQLVESGGGVVQPGRSLRLSCAASGFTFSNAWMHWVRQAPGKGLEWVAQIKAKSQNYATYYAESVKGRFTISRDDSKNSLYLQMNSLKTEDTAVYYCRYVHYGAYYGVDAWGQGTTVTVSSASTKGPSVFPLAPSSKSTSGGTAALGCLVKDYFPEPVTVSWNSGALTSGVHTFPAVLQSSGLYSLSSVVTVPSSSLGTQTYICNVNHKPSNTKVDKKVEPKSCDKTHTCPPCPAPEAAGGPSVFLFPPKPKDTLMISRTPEVTCVVVDVSHEDPEVKFNWYVDGVEVHNAKTKPREEQYASTYRVVSVLTVLHQDWLNGKEYKCKVSNKALPAPIEKTISKAKGQPREPQVYTLPPSRCELTKNQVSLSCAVKGFYPSDIAVEWESNGQPENNYKTTPPVLDSDGSFFLVSKLTVDKSRWQQGNVFSCSVMHEALHNHYTQKSLSLSPDYKDDDDK EPKSSDKTHTCPPCPAPELLGGPSVFLFPPKPKDTLMISRTPEVTCVVVDVSHEDPEVKFNWYVDGVEVHNAKTKPREEQYNSTYRVVSVLTVLHQDWLNGKEYKCKVSNKALPAPIEKTISKAKGQPREPQVCTLPPSRDELTKNQVSLWCLVKGFYPSDIAVEWESNGQPENNYKTTPPVLDSDGSFFLYSKLTVDKSRWQQGNVFSCSVMHEALHNRYTQKSLSLSP light: DIVMTQSPLSLPVTPGEPASISCRSSQSLVHSNRNTYLHWYQQKPGQAPRLLIYKVSNRFSGVPDRFSGSGSGTDFTLKISRVEAEDVGVYYCGQGTQVPYTFGQGTKLEIKRTVAAPSVFIFPPSDEQLKSGTASVVCLLNNFYPREAKVQWKVDNALQSGNSQESVTEQDSKDSTYSLSSTLTLSKADYEKHKVYACEVTHQGLSSPVTKSFNRGEC", "KD ratio (KD of CE115HA000/KD of altered form)": 1.05}
{"binder": "CE115HA000 N53Y (antibody, human IgG1, kappa, L234A L235A, N297A, name in Kabat numbering, one-arm antibody) heavy: QVQLVESGGGVVQPGRSLRLSCAASGFTFSNAWMHWVRQAPGKGLEWVAQIKAKSYNYATYYAESVKGRFTISRDDSKNSLYLQMNSLKTEDTAVYYCRYVHYGAYYGVDAWGQGTTVTVSSASTKGPSVFPLAPSSKSTSGGTAALGCLVKDYFPEPVTVSWNSGALTSGVHTFPAVLQSSGLYSLSSVVTVPSSSLGTQTYICNVNHKPSNTKVDKKVEPKSCDKTHTCPPCPAPEAAGGPSVFLFPPKPKDTLMISRTPEVTCVVVDVSHEDPEVKFNWYVDGVEVHNAKTKPREEQYASTYRVVSVLTVLHQDWLNGKEYKCKVSNKALPAPIEKTISKAKGQPREPQVYTLPPSRCELTKNQVSLSCAVKGFYPSDIAVEWESNGQPENNYKTTPPVLDSDGSFFLVSKLTVDKSRWQQGNVFSCSVMHEALHNHYTQKSLSLSPDYKDDDDK EPKSSDKTHTCPPCPAPELLGGPSVFLFPPKPKDTLMISRTPEVTCVVVDVSHEDPEVKFNWYVDGVEVHNAKTKPREEQYNSTYRVVSVLTVLHQDWLNGKEYKCKVSNKALPAPIEKTISKAKGQPREPQVCTLPPSRDELTKNQVSLWCLVKGFYPSDIAVEWESNGQPENNYKTTPPVLDSDGSFFLYSKLTVDKSRWQQGNVFSCSVMHEALHNRYTQKSLSLSP light: DIVMTQSPLSLPVTPGEPASISCRSSQSLVHSNRNTYLHWYQQKPGQAPRLLIYKVSNRFSGVPDRFSGSGSGTDFTLKISRVEAEDVGVYYCGQGTQVPYTFGQGTKLEIKRTVAAPSVFIFPPSDEQLKSGTASVVCLLNNFYPREAKVQWKVDNALQSGNSQESVTEQDSKDSTYSLSSTLTLSKADYEKHKVYACEVTHQGLSSPVTKSFNRGEC", "KD ratio (KD of CE115HA000/KD of altered form)": 0.94}
{"binder": "CE115HA000 N54A (antibody, human IgG1, kappa, L234A L235A, N297A, name in Kabat numbering, one-arm antibody) heavy: QVQLVESGGGVVQPGRSLRLSCAASGFTFSNAWMHWVRQAPGKGLEWVAQIKAKSNAYATYYAESVKGRFTISRDDSKNSLYLQMNSLKTEDTAVYYCRYVHYGAYYGVDAWGQGTTVTVSSASTKGPSVFPLAPSSKSTSGGTAALGCLVKDYFPEPVTVSWNSGALTSGVHTFPAVLQSSGLYSLSSVVTVPSSSLGTQTYICNVNHKPSNTKVDKKVEPKSCDKTHTCPPCPAPEAAGGPSVFLFPPKPKDTLMISRTPEVTCVVVDVSHEDPEVKFNWYVDGVEVHNAKTKPREEQYASTYRVVSVLTVLHQDWLNGKEYKCKVSNKALPAPIEKTISKAKGQPREPQVYTLPPSRCELTKNQVSLSCAVKGFYPSDIAVEWESNGQPENNYKTTPPVLDSDGSFFLVSKLTVDKSRWQQGNVFSCSVMHEALHNHYTQKSLSLSPDYKDDDDK EPKSSDKTHTCPPCPAPELLGGPSVFLFPPKPKDTLMISRTPEVTCVVVDVSHEDPEVKFNWYVDGVEVHNAKTKPREEQYNSTYRVVSVLTVLHQDWLNGKEYKCKVSNKALPAPIEKTISKAKGQPREPQVCTLPPSRDELTKNQVSLWCLVKGFYPSDIAVEWESNGQPENNYKTTPPVLDSDGSFFLYSKLTVDKSRWQQGNVFSCSVMHEALHNRYTQKSLSLSP light: DIVMTQSPLSLPVTPGEPASISCRSSQSLVHSNRNTYLHWYQQKPGQAPRLLIYKVSNRFSGVPDRFSGSGSGTDFTLKISRVEAEDVGVYYCGQGTQVPYTFGQGTKLEIKRTVAAPSVFIFPPSDEQLKSGTASVVCLLNNFYPREAKVQWKVDNALQSGNSQESVTEQDSKDSTYSLSSTLTLSKADYEKHKVYACEVTHQGLSSPVTKSFNRGEC", "KD ratio (KD of CE115HA000/KD of altered form)": 0.58}
{"binder": "CE115HA000 N53S (antibody, human IgG1, kappa, L234A L235A, N297A, name in Kabat numbering, one-arm antibody) heavy: QVQLVESGGGVVQPGRSLRLSCAASGFTFSNAWMHWVRQAPGKGLEWVAQIKAKSSNYATYYAESVKGRFTISRDDSKNSLYLQMNSLKTEDTAVYYCRYVHYGAYYGVDAWGQGTTVTVSSASTKGPSVFPLAPSSKSTSGGTAALGCLVKDYFPEPVTVSWNSGALTSGVHTFPAVLQSSGLYSLSSVVTVPSSSLGTQTYICNVNHKPSNTKVDKKVEPKSCDKTHTCPPCPAPEAAGGPSVFLFPPKPKDTLMISRTPEVTCVVVDVSHEDPEVKFNWYVDGVEVHNAKTKPREEQYASTYRVVSVLTVLHQDWLNGKEYKCKVSNKALPAPIEKTISKAKGQPREPQVYTLPPSRCELTKNQVSLSCAVKGFYPSDIAVEWESNGQPENNYKTTPPVLDSDGSFFLVSKLTVDKSRWQQGNVFSCSVMHEALHNHYTQKSLSLSPDYKDDDDK EPKSSDKTHTCPPCPAPELLGGPSVFLFPPKPKDTLMISRTPEVTCVVVDVSHEDPEVKFNWYVDGVEVHNAKTKPREEQYNSTYRVVSVLTVLHQDWLNGKEYKCKVSNKALPAPIEKTISKAKGQPREPQVCTLPPSRDELTKNQVSLWCLVKGFYPSDIAVEWESNGQPENNYKTTPPVLDSDGSFFLYSKLTVDKSRWQQGNVFSCSVMHEALHNRYTQKSLSLSP light: DIVMTQSPLSLPVTPGEPASISCRSSQSLVHSNRNTYLHWYQQKPGQAPRLLIYKVSNRFSGVPDRFSGSGSGTDFTLKISRVEAEDVGVYYCGQGTQVPYTFGQGTKLEIKRTVAAPSVFIFPPSDEQLKSGTASVVCLLNNFYPREAKVQWKVDNALQSGNSQESVTEQDSKDSTYSLSSTLTLSKADYEKHKVYACEVTHQGLSSPVTKSFNRGEC", "KD ratio (KD of CE115HA000/KD of altered form)": 0.59}
{"binder": "CE115HA000 N54D (antibody, human IgG1, kappa, L234A L235A, N297A, name in Kabat numbering, one-arm antibody) heavy: QVQLVESGGGVVQPGRSLRLSCAASGFTFSNAWMHWVRQAPGKGLEWVAQIKAKSNDYATYYAESVKGRFTISRDDSKNSLYLQMNSLKTEDTAVYYCRYVHYGAYYGVDAWGQGTTVTVSSASTKGPSVFPLAPSSKSTSGGTAALGCLVKDYFPEPVTVSWNSGALTSGVHTFPAVLQSSGLYSLSSVVTVPSSSLGTQTYICNVNHKPSNTKVDKKVEPKSCDKTHTCPPCPAPEAAGGPSVFLFPPKPKDTLMISRTPEVTCVVVDVSHEDPEVKFNWYVDGVEVHNAKTKPREEQYASTYRVVSVLTVLHQDWLNGKEYKCKVSNKALPAPIEKTISKAKGQPREPQVYTLPPSRCELTKNQVSLSCAVKGFYPSDIAVEWESNGQPENNYKTTPPVLDSDGSFFLVSKLTVDKSRWQQGNVFSCSVMHEALHNHYTQKSLSLSPDYKDDDDK EPKSSDKTHTCPPCPAPELLGGPSVFLFPPKPKDTLMISRTPEVTCVVVDVSHEDPEVKFNWYVDGVEVHNAKTKPREEQYNSTYRVVSVLTVLHQDWLNGKEYKCKVSNKALPAPIEKTISKAKGQPREPQVCTLPPSRDELTKNQVSLWCLVKGFYPSDIAVEWESNGQPENNYKTTPPVLDSDGSFFLYSKLTVDKSRWQQGNVFSCSVMHEALHNRYTQKSLSLSP light: DIVMTQSPLSLPVTPGEPASISCRSSQSLVHSNRNTYLHWYQQKPGQAPRLLIYKVSNRFSGVPDRFSGSGSGTDFTLKISRVEAEDVGVYYCGQGTQVPYTFGQGTKLEIKRTVAAPSVFIFPPSDEQLKSGTASVVCLLNNFYPREAKVQWKVDNALQSGNSQESVTEQDSKDSTYSLSSTLTLSKADYEKHKVYACEVTHQGLSSPVTKSFNRGEC", "KD ratio (KD of CE115HA000/KD of altered form)": 0.59}
{"binder": "CE115HA000 N53W (antibody, human IgG1, kappa, L234A L235A, N297A, name in Kabat numbering, one-arm antibody) heavy: QVQLVESGGGVVQPGRSLRLSCAASGFTFSNAWMHWVRQAPGKGLEWVAQIKAKSWNYATYYAESVKGRFTISRDDSKNSLYLQMNSLKTEDTAVYYCRYVHYGAYYGVDAWGQGTTVTVSSASTKGPSVFPLAPSSKSTSGGTAALGCLVKDYFPEPVTVSWNSGALTSGVHTFPAVLQSSGLYSLSSVVTVPSSSLGTQTYICNVNHKPSNTKVDKKVEPKSCDKTHTCPPCPAPEAAGGPSVFLFPPKPKDTLMISRTPEVTCVVVDVSHEDPEVKFNWYVDGVEVHNAKTKPREEQYASTYRVVSVLTVLHQDWLNGKEYKCKVSNKALPAPIEKTISKAKGQPREPQVYTLPPSRCELTKNQVSLSCAVKGFYPSDIAVEWESNGQPENNYKTTPPVLDSDGSFFLVSKLTVDKSRWQQGNVFSCSVMHEALHNHYTQKSLSLSPDYKDDDDK EPKSSDKTHTCPPCPAPELLGGPSVFLFPPKPKDTLMISRTPEVTCVVVDVSHEDPEVKFNWYVDGVEVHNAKTKPREEQYNSTYRVVSVLTVLHQDWLNGKEYKCKVSNKALPAPIEKTISKAKGQPREPQVCTLPPSRDELTKNQVSLWCLVKGFYPSDIAVEWESNGQPENNYKTTPPVLDSDGSFFLYSKLTVDKSRWQQGNVFSCSVMHEALHNRYTQKSLSLSP light: DIVMTQSPLSLPVTPGEPASISCRSSQSLVHSNRNTYLHWYQQKPGQAPRLLIYKVSNRFSGVPDRFSGSGSGTDFTLKISRVEAEDVGVYYCGQGTQVPYTFGQGTKLEIKRTVAAPSVFIFPPSDEQLKSGTASVVCLLNNFYPREAKVQWKVDNALQSGNSQESVTEQDSKDSTYSLSSTLTLSKADYEKHKVYACEVTHQGLSSPVTKSFNRGEC", "KD ratio (KD of CE115HA000/KD of altered form)": 0.69}
